Molecular target: PTH receptors
Assay: cell-based or functional assay

Binder	EC50, production of cAMP in a cell base potency assay for functional PTH activity
AVSEHQLLHXKGKSIQDLRRRELLEKLLXKLHTA (beta-Asp at position 10; Aib (2-aminoisobutyric acid) at position 29; C-terminal amide (NH2)) [(beta-Asp10) abaloparatide ([b-Asp10, Glu22,25, Leu23,28,31, Aib29, Lys26,30]hPTHrP(1-34)NH2)]	3.3 ng/mL
AVSEHQLLHDKGKSIQDLRRRELLEKLLXKLHTA (Aib (2-aminoisobutyric acid) at position 29; C-terminal amide (NH2)) [abaloparatide ([Glu22,25, Leu23,28,31, Aib29, Lys26,30]hPTHrP(1-34)NH2)]	0.325 ng/mL
